Molecular target: Polθ (full-length DNA polymerase theta) (human, UniProt O75417 1-2590)
Test: fluorescence anisotropy; 1 mM ATP, 10 mM MgCl2; KD printed only in figure; significantly lower than Polθ-pol and Polθ-hel; Anisotropy: 25 mM Tris-HCl pH 8.8, 1 mM DTT, 0.01% NP-40, 10 mM MgCl2, 10% glycerol, 0.1 mg/ml BSA, 1 mM ATP, 30 mM NaCl, room temp, at least 30 min, 10 nM FAM-ssDNA
Settings: protein: recombinant; tags: 3xFLAG (N-terminal); label: 5' FAM

Chain of Polθ (full-length DNA polymerase theta) (O75417 whole entry): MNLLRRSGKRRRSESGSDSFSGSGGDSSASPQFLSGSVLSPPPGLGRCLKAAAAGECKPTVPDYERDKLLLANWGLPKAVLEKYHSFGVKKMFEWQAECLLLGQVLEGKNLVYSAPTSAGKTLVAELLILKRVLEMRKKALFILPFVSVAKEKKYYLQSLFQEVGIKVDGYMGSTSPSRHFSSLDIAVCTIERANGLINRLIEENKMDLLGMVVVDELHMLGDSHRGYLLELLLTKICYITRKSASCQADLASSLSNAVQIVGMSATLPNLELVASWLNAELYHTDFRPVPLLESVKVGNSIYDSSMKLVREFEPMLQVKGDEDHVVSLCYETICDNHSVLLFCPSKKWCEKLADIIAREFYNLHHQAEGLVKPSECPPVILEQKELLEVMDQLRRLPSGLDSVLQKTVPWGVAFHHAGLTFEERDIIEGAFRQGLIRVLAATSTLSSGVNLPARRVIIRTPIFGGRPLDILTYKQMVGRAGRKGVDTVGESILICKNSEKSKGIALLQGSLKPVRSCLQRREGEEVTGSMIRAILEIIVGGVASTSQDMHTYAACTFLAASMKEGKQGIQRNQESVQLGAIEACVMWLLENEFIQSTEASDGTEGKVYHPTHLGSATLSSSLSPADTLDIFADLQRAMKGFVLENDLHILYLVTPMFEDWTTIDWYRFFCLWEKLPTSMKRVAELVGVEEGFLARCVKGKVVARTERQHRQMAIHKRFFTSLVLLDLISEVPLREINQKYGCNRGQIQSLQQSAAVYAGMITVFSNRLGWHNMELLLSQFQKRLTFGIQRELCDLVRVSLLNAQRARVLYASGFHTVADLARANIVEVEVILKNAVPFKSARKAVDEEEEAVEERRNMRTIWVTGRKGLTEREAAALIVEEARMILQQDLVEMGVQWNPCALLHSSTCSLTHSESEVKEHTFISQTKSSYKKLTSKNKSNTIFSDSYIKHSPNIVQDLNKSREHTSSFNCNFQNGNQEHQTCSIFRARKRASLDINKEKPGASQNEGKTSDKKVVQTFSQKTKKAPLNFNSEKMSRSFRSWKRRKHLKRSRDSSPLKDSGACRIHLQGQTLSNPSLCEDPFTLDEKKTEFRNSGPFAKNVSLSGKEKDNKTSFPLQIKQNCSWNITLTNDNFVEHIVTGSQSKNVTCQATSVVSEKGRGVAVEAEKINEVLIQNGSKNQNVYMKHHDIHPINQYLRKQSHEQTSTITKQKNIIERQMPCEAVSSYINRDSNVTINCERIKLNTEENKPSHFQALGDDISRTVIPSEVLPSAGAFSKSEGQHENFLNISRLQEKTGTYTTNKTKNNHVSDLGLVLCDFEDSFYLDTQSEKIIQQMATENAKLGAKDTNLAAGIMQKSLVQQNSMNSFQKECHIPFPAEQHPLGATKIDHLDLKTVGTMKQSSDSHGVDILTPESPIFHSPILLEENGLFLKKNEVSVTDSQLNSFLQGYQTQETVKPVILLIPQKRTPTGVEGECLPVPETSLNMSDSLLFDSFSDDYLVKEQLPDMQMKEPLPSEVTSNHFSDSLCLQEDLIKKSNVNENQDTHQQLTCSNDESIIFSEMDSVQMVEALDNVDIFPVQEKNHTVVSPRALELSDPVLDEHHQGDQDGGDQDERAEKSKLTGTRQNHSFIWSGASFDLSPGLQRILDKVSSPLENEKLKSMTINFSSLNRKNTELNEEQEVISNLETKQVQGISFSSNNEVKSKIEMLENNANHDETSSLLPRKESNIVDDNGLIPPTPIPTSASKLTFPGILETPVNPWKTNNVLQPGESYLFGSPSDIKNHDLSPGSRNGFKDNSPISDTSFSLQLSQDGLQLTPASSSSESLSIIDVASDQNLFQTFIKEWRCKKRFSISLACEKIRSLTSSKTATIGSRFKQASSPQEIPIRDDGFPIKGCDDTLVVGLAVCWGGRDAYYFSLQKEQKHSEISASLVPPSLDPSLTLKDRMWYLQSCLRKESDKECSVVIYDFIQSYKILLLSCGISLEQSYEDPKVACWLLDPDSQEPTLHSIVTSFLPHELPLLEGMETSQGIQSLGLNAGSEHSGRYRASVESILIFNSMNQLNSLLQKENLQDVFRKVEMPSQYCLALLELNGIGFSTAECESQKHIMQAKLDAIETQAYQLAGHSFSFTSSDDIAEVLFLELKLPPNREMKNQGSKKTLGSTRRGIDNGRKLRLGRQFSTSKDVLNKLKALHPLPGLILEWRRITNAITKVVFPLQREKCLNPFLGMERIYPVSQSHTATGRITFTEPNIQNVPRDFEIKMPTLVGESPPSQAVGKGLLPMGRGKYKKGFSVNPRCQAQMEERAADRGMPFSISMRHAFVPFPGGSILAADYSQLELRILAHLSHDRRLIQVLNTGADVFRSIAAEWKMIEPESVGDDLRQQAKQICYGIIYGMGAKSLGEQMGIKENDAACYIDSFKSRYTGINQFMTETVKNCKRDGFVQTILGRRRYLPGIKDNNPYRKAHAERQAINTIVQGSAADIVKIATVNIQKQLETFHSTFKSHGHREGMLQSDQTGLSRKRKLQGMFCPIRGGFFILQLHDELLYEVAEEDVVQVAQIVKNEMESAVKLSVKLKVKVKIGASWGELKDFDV

## TTTTTTTTTTTTTTTTTTTTTTTTTTTTT (ssDNA) [RP316FAM5 (29 nt ssDNA)]
  binding result: binds

Source: PMC6764996, “Molecular basis of microhomology-mediated end-joining by purified full-length Polθ”
